Patent publication US20260168005A1, “DRUG SCREENING METHOD BASED ON DRUG DISCOVERY CONCEPT OF CANCER CELL PROLIFERATION INHIBITION INDUCED BY DISRUPTION OF CHROMOSOME REGULATION DUE TO PLK1 KINASE ACTIVATION” (JAPANESE FOUNDATION FOR CANCER RESEARCH, priority 2022, published 2026)
No end group written: not given here.

B1: PxVXL peptide (negative control peptide that does not bind to PLK1) (peptide)
peptide: NHTQCQLVPVVEIGISERQN
notes: Printed in the text as NHTQCQLVPVVEIGISERON; The 'O' may be a printing error

Experiments:
HeLa cells = test: Cell death on expression of GFP-tagged PON peptide, live cell imaging; type: cell-based; settings: plasmid transfection, GFP tag at N-terminus, live cell imaging (FIG. 6B)
Text: (§1) Plasmids that express WT ([…]: SEQ ID NO: 1) and a TA mutant (Plk1 unbound, […]: SEQ ID NO: 2) of the PON peptide with a GFP tag added to the N-terminus were introduced into HeLa cells by a plasmid transfection method with FuGENE HD transfection Reagent (Promega Corporation) and into RPE1 cells by a nucleofection method with 4D nucleofector (Lonza Group Ltd.). Since the PON peptide binds to the PBD upon phosphorylation by Cdk1, a TA mutant of the PON peptide in which the phosphorylation site was substituted with Ala was used as a negative control.
(§2) Observation was performed using live cell imaging, and the number of cells that underwent cell death in cells with GFP expression observed was counted. […] In other words, suppression of the association of the PBD and KD of endogenous Plk1 can cause significant cell growth suppression to be induced in cancer cells (FIG. 6B). From the fact that induction of cell death due to Plk1 activation is not observed in normal cells, compounds that activate Plk1 are expected to exert an effect in a cancer cell-specific manner.

endogenous Plk1 = endogenous Plk1 (UniProt P53350); test: cell-based or functional assay
endogenous Plk1, sequence (P53350 2-603 limits assumed): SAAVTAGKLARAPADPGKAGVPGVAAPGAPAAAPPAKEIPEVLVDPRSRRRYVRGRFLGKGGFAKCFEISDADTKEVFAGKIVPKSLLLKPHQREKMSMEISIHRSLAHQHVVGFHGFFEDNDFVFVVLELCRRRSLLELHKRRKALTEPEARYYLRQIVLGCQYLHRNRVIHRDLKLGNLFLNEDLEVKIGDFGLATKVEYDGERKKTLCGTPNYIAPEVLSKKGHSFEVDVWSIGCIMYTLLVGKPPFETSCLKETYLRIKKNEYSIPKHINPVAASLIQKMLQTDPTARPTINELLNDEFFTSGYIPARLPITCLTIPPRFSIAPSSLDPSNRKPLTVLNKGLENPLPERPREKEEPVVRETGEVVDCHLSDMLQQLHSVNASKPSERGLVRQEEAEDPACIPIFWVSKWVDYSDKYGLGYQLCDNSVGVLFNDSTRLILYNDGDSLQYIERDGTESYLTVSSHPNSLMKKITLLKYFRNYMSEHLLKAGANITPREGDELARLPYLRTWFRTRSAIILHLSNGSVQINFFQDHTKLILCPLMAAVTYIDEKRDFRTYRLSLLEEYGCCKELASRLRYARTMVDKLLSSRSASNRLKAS

recombinant GST-His-Plk1 = recombinant GST-His-Plk1 (Homo sapiens, UniProt P53350); test: Intramolecular TR-FRET assay of kinase domain / Polo-Box domain association; type: binding; settings: Plk1 0 to 100 nM; pPON 0 to 1000 µM, PxVXL 25 to 100 µM; room temperature 1 hour, then GST-Tb and His-d2 3 hours (FIG. 7B)
recombinant GST-His-Plk1, sequence (P53350 whole entry, the tested form may be a part): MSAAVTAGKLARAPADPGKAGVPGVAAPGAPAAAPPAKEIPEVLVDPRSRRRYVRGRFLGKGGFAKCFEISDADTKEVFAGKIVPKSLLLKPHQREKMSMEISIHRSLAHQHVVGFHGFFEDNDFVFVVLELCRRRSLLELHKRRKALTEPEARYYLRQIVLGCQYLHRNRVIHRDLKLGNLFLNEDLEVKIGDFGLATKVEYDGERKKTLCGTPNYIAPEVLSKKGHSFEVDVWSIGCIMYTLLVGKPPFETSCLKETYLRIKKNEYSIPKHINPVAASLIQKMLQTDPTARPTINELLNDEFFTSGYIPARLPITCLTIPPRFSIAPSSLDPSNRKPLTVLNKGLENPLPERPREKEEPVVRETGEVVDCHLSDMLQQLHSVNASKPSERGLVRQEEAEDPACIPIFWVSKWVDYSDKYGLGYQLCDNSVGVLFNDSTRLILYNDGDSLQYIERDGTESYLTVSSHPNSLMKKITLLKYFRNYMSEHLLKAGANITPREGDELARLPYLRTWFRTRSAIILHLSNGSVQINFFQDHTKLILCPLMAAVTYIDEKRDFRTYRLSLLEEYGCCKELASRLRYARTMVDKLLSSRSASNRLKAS
Text: In other words, it is an assay system that reflects the folding state within Plk1 molecules, and a screening system for drug discovery sees according to the mechanism of action of “inhibiting the suppressive association within the molecules to lead to kinase activation”. A fluorescence resonance energy transfer (FRET) assay system that detects the interaction of PBD that suppressively associates with the Plk1 kinase domain was constructed. The design was made as follows: a full-length recombinant protein was purified, and a donor (GST-Tb) were placed in the kinase domain and an acceptor (His-d2) in the PBD using antibodies that act as luminescent agents based on the conformational information so that the FRET reaction would efficiently occur.
A recombinant Plk1 in which a GST tag was added into a pFastBacl vector at the N-terminus, and a 6His-tag was inserted in the vicinity of the N-terminus of PB1 (Polo-Box 1) was constructed (left in FIG. 7A, GST-His-Plk1). […]
Intramolecular FRET analysis was performed using the recombinant GST-His-Plk1. […] Then, GST-Tb and His-d2 (PerkinElmer, Inc., MAb Anti-GST-Tb cryptate, MAb Anti-6HIS-d2) were added thereto to react at room temperature for 3 hours, and the emission signals were measured using the time-resolved fluorescence-fluorescence resonance energy transfer method (TR-FRET). […]

[1] = molecular target: recombinant GST-His-Plk1 (WT) (Homo sapiens, UniProt P53350); test: ADP-Glo kinase assay with dephosphorylated casein substrate; type: biochemical; settings: pPON 0 to 1000 M; 0.5 μg dephosphorylated casein; 5 µM ATP; room temperature 1 hour (FIG. 10A)
recombinant GST-His-Plk1 (WT) (Homo sapiens, UniProt P53350), sequence (P53350 whole entry): as the sequence (P53350 whole entry, the tested form may be a part) above
Description: Further, the kinase activity of GST-His-Plk1 was evaluated by a kinase assay. First, it was confirmed that the kinase activity of the recombinant GST-His-Plk1, which contained a His-tag for FRET in the molecule, was equivalent to that of the one without the tag. Next, GST-His-Plk1 was used and mixed with 0.5 μg of dephosphorylated casein as a phosphorylation substrate in the presence of pPON ([…]), a kinase reaction was performed at room temperature for 1 hour in the presence of 5 µM of ATP, and a kinase reaction was performed between the recombinant GST-His-Plk1 (WT) (0 to 3.36 μM) and the dephosphorylated casein. Using an ADP-Glo (trademark) kinase assay kit (Promega Corporation), the kinase activity was measured by an ADP-Glo method, which quantifies in the […]. […] Also, the results of the kinase assays using the S137D/T210D mutant and S137D mutant also indicate that high kinase activity can be obtained when the intramolecular association is inhibited (FIG. 10B). Accordingly, the kinase assay can be used as a screening method that detects the association between the kinase domain and PBD of Plk1, and suppression of the association can be detected. Also, in the case of using the kinase assay for screening, a construct in which a kinase domain and PBD are separated can also be used.

RPE1 cells = test: Cell death on expression of GFP-tagged PON peptide, live cell imaging; type: cell-based; settings: RPE1 normal diploid cells, nucleofection, GFP tag at N-terminus, live cell imaging (FIG. 6B)
Text: as §1, §2

[2] = molecular target: T1, recombinant GST-His-Plk1 (WT) (UniProt P53350 2-603, limits assumed); test: intramolecular TR-FRET on GST-His-Plk1 (indirect read-out)
T1 construct: mature; Made in the Baculovirus/Sf9 system and purified on Glutathione Sepharose; also called Plk1 recombinant protein; wild-type GST-His-Plk1; not shown: N-terminal GST tag
T1 sequence (P53350 2-603 limits assumed): as the sequence (P53350 2-603 limits assumed) above

Molecule | death of cells (percentage of GFP-expressing cells that underwent cell death) (HeLa cells) | FRET signal (His-d2 relative to GST-Tb) (recombinant GST-His-Plk1) | other results
ESCFTNAAFSSAPKK [TA mutant, reference compound] | about 30% | – | –
PON peptide WT with a GFP tag added to the N-terminus | – | – | percentage of cell death in GFP-expressing HeLa cells (live cell imaging) (endogenous Plk1): > 70%
NHTQCQLVPVVEIGISERON (NHTQCQLVPVVEIGISERQN) [PxVXL, reference compound] | – | this effect was not observed | –
pPON: pPON peptide (SEQ ID NO: 1) reacted with recombinant Plk1 in FRET and kinase assays (ESCFTNAAFSSTPKK; also: phosphorylated, position not given here) | – | FRET signals were reproducibly observed to gradually decrease | kinase activity [1]: kinase activity increased depending on the amount of pPON added
ESCFTNAAFSSTPKK [PON peptide] | ≥ 70% | – | increase in cell death (RPE1 cells): no increase in cell death was observed
B1 | – | – | binding result [2]: no binding (tested: 25 to 100 UM)
